T1: NgR3 (full-length, N-terminally myc-tagged rat NgR3) (rat, UniProt Q80WD0 24-424)
T1 construct: also called myc-NgR3[Gly24-Arg445]
T1 sequence: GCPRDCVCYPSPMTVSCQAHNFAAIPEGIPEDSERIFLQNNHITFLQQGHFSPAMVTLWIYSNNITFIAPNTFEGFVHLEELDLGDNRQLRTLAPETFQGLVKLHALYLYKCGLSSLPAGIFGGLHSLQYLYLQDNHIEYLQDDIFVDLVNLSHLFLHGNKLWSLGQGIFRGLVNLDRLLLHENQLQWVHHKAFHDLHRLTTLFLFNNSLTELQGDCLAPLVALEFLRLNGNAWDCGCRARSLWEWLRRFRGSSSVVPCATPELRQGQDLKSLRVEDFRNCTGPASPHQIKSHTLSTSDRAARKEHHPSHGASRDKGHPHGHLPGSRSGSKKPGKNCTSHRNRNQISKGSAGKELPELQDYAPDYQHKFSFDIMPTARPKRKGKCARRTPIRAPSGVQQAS

T2: NgR2 (full-length, N-terminally myc-tagged rat NgR2) (rat, UniProt Q80WD1 30-390)
T2 construct: also called myc-NgR2[Ser30-Leu420]
T2 sequence: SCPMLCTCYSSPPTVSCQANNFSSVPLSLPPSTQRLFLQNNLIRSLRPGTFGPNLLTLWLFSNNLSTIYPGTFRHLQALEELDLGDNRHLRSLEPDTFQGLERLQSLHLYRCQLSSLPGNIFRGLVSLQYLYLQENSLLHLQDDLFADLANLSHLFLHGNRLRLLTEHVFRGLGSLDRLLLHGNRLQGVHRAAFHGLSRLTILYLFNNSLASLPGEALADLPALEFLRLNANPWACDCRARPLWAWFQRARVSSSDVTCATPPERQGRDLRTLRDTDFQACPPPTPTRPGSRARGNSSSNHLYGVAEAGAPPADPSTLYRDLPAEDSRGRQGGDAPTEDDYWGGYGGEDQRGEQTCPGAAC

T3: NgR1 (Nogo receptor; full-length, N-terminally myc-tagged rat NgR) (rat, UniProt Q99M75 26-447)
T3 construct: GPI-linked; Expressed on COS-7 cells, in HEK293T cells (co-IP) and by adenovirus in rat DRG neurons; the tag is stated only for the COS-7 construct; also called myc-NgR[Pro26-Cys473]
T3 sequence: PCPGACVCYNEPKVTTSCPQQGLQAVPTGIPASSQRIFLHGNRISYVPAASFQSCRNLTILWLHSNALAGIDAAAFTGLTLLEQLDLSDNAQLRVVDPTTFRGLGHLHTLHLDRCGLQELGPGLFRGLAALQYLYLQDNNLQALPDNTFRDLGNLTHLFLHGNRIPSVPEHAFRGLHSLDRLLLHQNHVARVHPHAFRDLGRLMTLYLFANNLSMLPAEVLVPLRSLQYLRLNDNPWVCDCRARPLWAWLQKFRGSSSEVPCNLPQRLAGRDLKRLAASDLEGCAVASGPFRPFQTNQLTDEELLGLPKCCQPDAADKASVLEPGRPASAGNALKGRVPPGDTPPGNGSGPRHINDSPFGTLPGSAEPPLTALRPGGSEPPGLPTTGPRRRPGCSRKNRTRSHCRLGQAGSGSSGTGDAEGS


How the values were obtained:
[1] = target: NgR2 (full-length, N-terminally myc-tagged rat NgR2) (rat) (UniProt Q80WD1); test: Scatchard plot analysis, MAG-Fc on NgR2 expressing COS-7 cells
[2] = target: NgR2 (full-length, N-terminally myc-tagged rat NgR2) (rat) (UniProt Q80WD1); test: MAG-Fc binding to NgR2 expressing COS-7 cells
[3] = target: NgR2 (full-length, N-terminally myc-tagged rat NgR2) (rat) (UniProt Q80WD1); test: MAG-Fc binding to transfected COS-7 cells, direct comparison with NgR
[4] = target: NgR2 (full-length, N-terminally myc-tagged rat NgR2) (rat) (UniProt Q80WD1); test: estimated from the 5 fold comparison on COS-7 cells and the literature Kd of MAG-Fc/NgR
[5] = target: T1, NgR3 (full-length, N-terminally …); test: AP-ligand binding to transfected COS-7 cells
[6] = target: T2, NgR2 (full-length, N-terminally …); test: AP-ligand binding to transfected COS-7 cells
[7] = target: T3, NgR1 (Nogo receptor; full-length, …); test: AP-ligand binding to transfected COS-7 cells

MAG-Fc (MAG ectodomain fused to the Fc fragment of human immunoglobulin) (Fc fusion), sequence (P07722 20-516): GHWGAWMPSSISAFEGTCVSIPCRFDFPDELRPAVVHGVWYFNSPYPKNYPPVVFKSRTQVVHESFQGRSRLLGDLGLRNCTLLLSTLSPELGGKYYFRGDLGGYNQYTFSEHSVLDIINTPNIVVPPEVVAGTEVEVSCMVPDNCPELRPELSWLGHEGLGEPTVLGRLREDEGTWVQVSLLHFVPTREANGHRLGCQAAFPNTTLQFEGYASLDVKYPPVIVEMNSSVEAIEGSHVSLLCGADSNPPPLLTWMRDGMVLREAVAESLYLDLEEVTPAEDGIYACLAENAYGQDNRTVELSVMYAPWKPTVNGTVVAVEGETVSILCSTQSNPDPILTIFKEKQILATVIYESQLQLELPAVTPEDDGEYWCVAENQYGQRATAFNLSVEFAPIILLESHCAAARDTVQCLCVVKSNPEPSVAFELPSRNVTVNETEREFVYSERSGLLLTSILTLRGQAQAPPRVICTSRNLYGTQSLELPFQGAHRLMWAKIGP

binding result [5] | binding result [6] | binding result [7] | Molecule | Kd [1] [nM] | concentration at which binding saturates [2] [nM] | fold tighter binding than to NgR [3] [fold] | Kd [4] [nM]
– | – | – | MAG-Fc (MAG ectodomain fused to the Fc fragment of human immunoglobulin) (Fc fusion) | 2 | 5 to 10 | 5 | 1 to 2
no binding | no binding | no binding | AP-sNgR^C-term (LRRCT domain together with the unique domain of NgR, residues 261-445, AP fusion) (receptor, Soluble, made in HEK293T cells; also called AP-sNgRCTu [Pro261-Glu445]; AP-NgR^C-term; not shown: alkaline phosphatase (AP) tag) PWVCDCRARPLWAWLQKFRGSSSEVPCNLPQRLAGRDLKRLAASDLEGCAVASGPFRPFQTNQLTDEELLGLPKCCQPDAADKASVLEPGRPASAGNALKGRVPPGDTPPGNGSGPRHINDSPFGTLPGSAEPPLTALRPGGSEPPGLPTTGPRRRPGCSRKNRTRSHCRLGQAGSGSSGTGDAE | – | – | – | –
